Sequences and labels used below:
B2: formyl peptide receptor (FPR), wild type, detergent-solubilized (receptor, human, UniProt P21462 1-350, looked up)
chain: METNSSLPTNISGGTPAVSAGYLFLDIITYLVFAVTFVLGVLGNGLVIWVAGFRMTHTVTTISYLNLAVADFCFTSTLPFFMVRKAMGGHWPFGWFLCKFVFTIVDINLFGSVFLIALIALDRCVCVLHPVWTQNHRTVSLAKKVIIGPWVMALLLTLPVIIRVTTVPGKTGTVACTFNFSPWTNDPKERINVAVAMLTVRGIIRFIIGFSAPMSIVAVSYGLIATKIHKQGLIKSSRPLRVLSFVAAAFFLCWSPYQVVALIATVRIRELLQGMYKEIGIAVDVTSALAFFNSCLNPMLYVFMGQDFRERLIHALPASLERALTEDSTQTSDTATNSTLPSAEVELQAK
notes: Used as a crude dodecyl maltoside extract of U937 membranes, not purified; In ternary complex assays it is occupied by the fluorescent ligand L^F; also called wild type receptor; soluble FPR
B4: FPR-GFP fusion protein (receptor)
chain: not shown
notes: also called R^F; receptor-GFP fusion protein

No end group written: not given here. *: point of attachment. For = O=C*

Experiment [1] addresses T1, β1H6γ2 dimer (human, UniProt P62873 2-340; P59768 2-68).
T1 construct: Purified from Sf9 cells and held on DCNi beads by the hexahistidine tag; also called βγ; Gβγ
The experiment is described as follows: flow cytometry, β1H6γ2 on DCNi beads, 1 µM GTP against GTPγS background. As to the method: (§1) Each mixture was mixed by pipetting to ensure a uniform starting suspension of the beads in 96 V-well plates (Costar), and then mixed at low speed on a vortex mixer at 7° for two hours. The 10 μl assays were individually brought to 200 μl with 0.1% dodecyl maltoside in buffer A in 12×75 mm tubes for flow cytometric measurement of fluorescence of the beads. LRG assembly was defined as the difference between fluorescence without GTPγS and that with GTPγS. All determinations were done in duplicate.
(In flow cytometry, cells or beads pass a laser one at a time.)

Experiment [2] deals with T2, G protein heterotrimer αi3β1H6γ2 (human, UniProt P62873 2-340; P59768 2-68). The experiment in a line: flow cytometry, L^FRG assembly on αi3β1H6γ2 DCNi beads, more nearly optimal conditions.
T2 sequence (P62873 2-340, chain 1 of 2): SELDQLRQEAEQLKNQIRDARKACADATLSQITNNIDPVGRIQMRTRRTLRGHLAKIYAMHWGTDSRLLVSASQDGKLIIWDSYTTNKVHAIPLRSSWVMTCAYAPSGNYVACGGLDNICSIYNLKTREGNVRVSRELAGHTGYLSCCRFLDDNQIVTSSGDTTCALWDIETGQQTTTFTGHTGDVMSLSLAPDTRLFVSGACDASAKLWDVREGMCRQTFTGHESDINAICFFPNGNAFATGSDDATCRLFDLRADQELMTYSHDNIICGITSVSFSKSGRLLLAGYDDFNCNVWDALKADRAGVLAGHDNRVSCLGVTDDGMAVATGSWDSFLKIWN
T2 sequence (P59768 other isoform, or with tags, fused parts or gaps, chain 2 of 2): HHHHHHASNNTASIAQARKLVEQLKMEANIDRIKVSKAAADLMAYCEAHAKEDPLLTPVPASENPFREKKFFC
In experiment [3] the target is T2, G protein heterotrimer αi3β1H6γ2. The experiment is described as follows: flow cytometry, αi3β1H6γ2 on DCNi beads, 60 nM FPR with 75 nM L^F; uncoated beads about 9,000 fluorophores. As to the method: as §1
(§2) The 10 μl assay was then diluted to 200 μl for spectrofluorimetric measurement. […] Uncoated beads were used in an assembly assay, bar 1, or were coated with G protein βγ only and used in an assembly assay, bar 2.

In experiment [4] the target is T1, β1H6γ2 dimer. The experiment is described as follows: flow cytometry of DCNi beads coated with βγ, 60 nM FPR and 75 nM L^F, with 0.1 mM GTPγS only background fluorescence. As to the method: as §1, §2
The target in the experiment “FPR-GFP fusion protein” is B4. The experiment is described as follows: flow cytometry, LR^FG assembly on αβγ DCNi beads, L varied; receptor depletes the ligand, so the filing says that the affinity of L for R^F is not revealed (FIG. 12C). The method, then:
Standard LRG Assembly Assay. […] Each mixture was mixed by pipetting to ensure a uniform starting suspension of the beads in 96 V-well plates (Costar), and then mixed at low speed on a vortex mixer at 7° for two hours. The 10 μl assays were individually brought to 200 μl with 0.1% dodecyl maltoside in buffer A in 12×75 mm tubes for flow cytometric measurement of fluorescence of the beads. LRG assembly was defined as the difference between fluorescence without GTPγS and that with GTPγS. All determinations were done in duplicate.

For experiment [5], the target named is T2, G protein heterotrimer αi3β1H6γ2. The experiment is described as follows: flow cytometry, LR^FG assembly on αβγ DCNi beads against GTPγS background. As to the method: as §1
Experiment [6] shares this target. The experiment is described as follows: flow cytometry, LR^FG assembly on αβγ DCNi beads, FPR-GFP varied with saturating fMLFFGGK; binding nearly linear over the range (FIG. 12D).
Experiment [7] concerns the target T3, formyl peptide receptor with a C-terminal hexahistidine tag (FPR:C-H6) (human, UniProt P21462 1-350).
T3 construct: Solubilized from membranes and captured on dextran chelate nickel (DCNi) beads; also called C-H6:FPR
T3 sequence: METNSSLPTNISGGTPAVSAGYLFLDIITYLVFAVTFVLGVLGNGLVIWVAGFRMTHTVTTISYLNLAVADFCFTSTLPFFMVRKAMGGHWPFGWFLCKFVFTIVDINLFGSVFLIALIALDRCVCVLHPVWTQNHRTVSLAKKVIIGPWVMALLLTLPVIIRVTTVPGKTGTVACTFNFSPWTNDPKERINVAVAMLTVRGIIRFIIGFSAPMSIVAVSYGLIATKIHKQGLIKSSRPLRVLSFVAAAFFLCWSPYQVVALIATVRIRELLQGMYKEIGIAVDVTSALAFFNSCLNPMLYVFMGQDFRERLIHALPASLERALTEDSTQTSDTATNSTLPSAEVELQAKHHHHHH
The experiment in a line: flow cytometry, hexahistidine-tagged FPR on DCNi beads, L^F titrated (FIG. 9E).
Description: The initial bead fluorescence was measured for twenty seconds, then an anti-FITC antibody was mixed with the beads, and the decrease in bead fluorescence was measured for another 100 seconds. The line shown is a best fit to a plateau, followed by an exponential decrease to the bottom.

In experiment [8] the target is B2. The experiment in a line: spectrofluorimetry, solubilized FPR, free ligand quenched with anti-FITC antibody, ligand-binding curve of FIG. 8B.
Description: Fluorescence was measured with an SLM 8000 spectrofluorimeter (SLM Instruments, Inc.) using the photon counting mode. The sample holder was fitted with a cylindrical cuvette adapter, which allowed the use of 200 µl samples in 7 mm×45 mm cylindrical cuvettes (Sienco; Wheat Ridge, Colo.), stirred with 2×5 mm stir bars (Bel-Art). […] Emission was monitored using a 520+/−10 nm filter (Corion) and a 500 nm long-pass filter (Kopp; Pittsburg, Pa.). Additions to samples during kinetic measurements were made through an injection port on the top of the sample holder with 10 µl glass syringes (Hamilton; Reno, Nev.).

T1 sequence (P62873 2-340, chain 1 of 2): as the sequence (P62873 2-340, chain 1 of 2) above
T1 sequence (P59768 other isoform, or with tags, fused parts or gaps, chain 2 of 2): as the sequence (P59768 other isoform, or with tags, fused parts or gaps, chain 2 of 2) above

B1: FPR-Giα2 fusion protein (receptor, human;rat)
chain: METNSSLPTNISGGTPAVSAGYLFLDIITYLVFAVTFVLGVLGNGLVIWVAGFRMTHTVTTISYLNLAVADFCFTSTLPFFMVRKAMGGHWPFGWFLCKFVFTIVDINLFGSVFLIALIALDRCVCVLHPVWTQNHRTVSLAKKVIIGPWVMALLLTLPVIIRVTTVPGKTGTVACTFNFSPWTNDPKERINVAVAMLTVRGIIRFIIGFSAPMSIVAVSYGLIATKIHKQGLIKSSRPLRVLSFVAAAFFLCWSPYQVVALIATVRIRELLQGMYKEIGIAVDVTSALAFFNSCLNPMLYVFMGQDFRERLIHALPASLERALTEDSTQTSDTATNSTLPSAEVELQAKAAAMGCTVSAEDKAAAERSKMIDKNLREDGEKAAREVKLLLLGAGESGKSTIVKQMKIIHEDGYSEEECRQYRAVVYSNTIQSIMAIVKAMGNLQIDFADPQRADDARQLFALSCAAEEQGMLPEDLSGVIRRLWADHGVQACFGRSREYQLNDSAAYYLNDLERIAQSDYIPTQQDVLRTRVKTTGIVETHFTFKDLHFKMFDVGGQRSERKKWIHCFEGVTAIIFCVALSAYDLVLAEDEEMNRMHESMKLFDSICNNKWFTDTSIILFLNKKDLFEEKITQSPLTICFPEYTGANKYDEAASYIQSKFEDLNKRKDTKEIYTHFTCATDTKNVQFVFDAVTDVIIKNNLKDCGLF
notes: Solubilized from membranes; in the assays occupied by L^F (fMLFK-FITC), which gives the signal; also called FPR-αi2; FPR-Gαi2
B1: the “total fluorescence to background ratio” value with β1H6γ2 dimer [1] is 2.7 ratio. The molecule B2 returned a signal to background in experiment [2] of at most 4 ratio. Besides, the “bead fluorescence against uncoated beads” value in experiment [3] stood at 3 fold. Further, the binding result with β1H6γ2 dimer [4] was “no binding”.

B3: fMLFFGGK (peptide)
peptide: For-MLFFGGK
notes: Synthesized by Commonwealth Biotechnologies; also called non-fluorescent ligand
B3 showed a concentration for a half-maximal effect (EC50) with FPR-GFP fusion protein of 0.115 µM. Regarding B4, the “total binding to background ratio” value in [5] is 4.9 ratio. In addition, the equilibrium dissociation constant (Kd) in experiment [6] amounted to 1 µM.

B5: formyl-MLFK-FITC (peptide)
peptide: For-MLFK
modifications: also: FITC conjugate, site not given here
notes: all other places print fMLFK-FITC; also called fMLFK-FITC; fluorescent ligand
In the case of B5, the Kd in experiment [7] is about 0.008 µM; in experiment [8] it was 0.0048 µM.

As usually defined, the EC50 is the concentration that produces a half-maximal response. Low values mean greater potency, high ones weaker potency. Usually Kd stands for the equilibrium constant for the complex coming apart. Lower therefore signals higher affinity.

The record behind these values is patent US7232659 (dated 2007).
